These results are taken from patent US20240376198A1 (INHIBRX, published 2024).

One may read the Kd as the constant that tells how readily two partners part at equilibrium.

The chains are these.
B1: NKp46-hz5D7v1-Fc* (Fc fusion)
chain: EVQLVESGGGEVQPGGSLRLSCAASGRTFASAAMGWFRQAPGKGREFVAAISRSDDTYYAESVKGRFTISRDNAKNTLYLQMSSLRAEDTAVYYCAAVVPTYGNNIYVHSAAYNYWGQGTLVTVKPGGGGPSVFLFPPKPKDTLMISRTPEVTCVVVDVSHEDPEVKFNWYVDGVEVHNAKTKPREEQYNSTYRVVSVLTVLHQDWLNGKEYKCKVSNKALPAPIEKTISKAKGQPREPQVYTLPPSRDELTKNQVSLTCLVKGFYPSDIAVEWESNGQPENNYKTTPPVLDSDGSFFLYSKLTVDKSRWQQGNVFSCSVMHEALHNHYTQKSLSLSPG
notes: VHH-Fc fusion with an IgG1 Fc lacking a hinge (Fc*)
B2: NKp46-hz5D7v4-Fc* (Fc fusion)
chain: B1 chain with G44E, E61D, L78V
notes: as for B1
B3: NKp46-hz5D7v2-Fc* (Fc fusion)
chain: B1 chain with G44E
notes: VHH-Fc fusion with an IgG1 Fc lacking a hinge (Fc*); also called NKp46-bz5D7v2-Fc*
B4: NKp46-hz5D7v7-Fc* (Fc fusion)
chain: B1 chain with G44E, D55G, E61D, L78V
notes: VHH-Fc fusion with an IgG1 Fc lacking a hinge (Fc*); also called NKp46-bz5D7v7-Fc*
B5: NKp46-hz5D7v8-Fc* (Fc fusion)
chain: EVQLVESGGGEVQPGGSLRLSCAASGRTFASAAMGWFRQAPGKEREFVAAISRSVGDTYYADSVKGRFTISRDNAKNTVYLQMSSLRAEDTAVYYCAAVVPTYGNNIYVHSAAYNYWGQGTLVTVKPGGGGPSVFLFPPKPKDTLMISRTPEVTCVVVDVSHEDPEVKFNWYVDGVEVHNAKTKPREEQYNSTYRVVSVLTVLHQDWLNGKEYKCKVSNKALPAPIEKTISKAKGQPREPQVYTLPPSRDELTKNQVSLTCLVKGFYPSDIAVEWESNGQPENNYKTTPPVLDSDGSFFLYSKLTVDKSRWQQGNVFSCSVMHEALHNHYTQKSLSLSPG
notes: VHH-Fc fusion with an IgG1 Fc lacking a hinge (Fc*); also called NKp46-bz5D7v8-Fc*
B6: NKp46-hz5D7v9-Fc* (Fc fusion)
chain: B5 chain with G56D
notes: as for B1
B7: NKp46-5D7-Fc* (Fc fusion)
chain: QVTLRESGASLSLTCAASGRTFASAAMGWFRQAPGEEREFVAAISRSDDTYYADSVKGRFTISRDNAKNTVYLQMNSLKSEDTAVYYCAAVVPTYGNNIYVHSAAYNYWGQGTQVTVKPGGGGGPSVFLFPPKPKDTLMISRTPEVTCVVVDVSHEDPEVKFNWYVDGVEVHNAKTKPREEQYNSTYRVVSVLTVLHQDWLNGKEYKCKVSNKALPAPIEKTISKAKGQPREPQVYTLPPSRDELTKNQVSLTCLVKGFYPSDIAVEWESNGQPENNYKTTPPVLDSDGSFFLYSKLTVDKSRWQQGNVFSCSVMHEALHNHYTQKSLSLSPG
notes: VHH-Fc fusion with an IgG1 Fc lacking a hinge (Fc*); also called 5D7 VHH
B8: NKp46-hz5D7v10-Fc* (Fc fusion)
chain: EVQLVESGGSLRLSCAASGRTFASAAMGWFRQAPGKEREFVAAISRSDDTYYADSVKGRFTISRDNAKNTVYLQMSSLRAEDTAVYYCAAVVPTYGNNIYVHSAAYNYWGQGTLVTVKPGGGGPSVFLFPPKPKDTLMISRTPEVTCVVVDVSHEDPEVKFNWYVDGVEVHNAKTKPREEQYNSTYRVVSVLTVLHQDWLNGKEYKCKVSNKALPAPIEKTISKAKGQPREPQVYTLPPSRDELTKNQVSLTCLVKGFYPSDIAVEWESNGQPENNYKTTPPVLDSDGSFFLYSKLTVDKSRWQQGNVFSCSVMHEALHNHYTQKSLSLSPG
notes: as for B1
B9: NKp46-hz5D7v12-Fc* (Fc fusion)
chain: B1 chain with G44E, L78V, N104S
notes: as for B1
B10: NKp46-hz5D7v13-Fc* (Fc fusion)
chain: B1 chain with G44E, L78V, N105T
notes: as for B1
B11: NKp46-hz5D7v15-Fc* (Fc fusion)
chain: B1 chain with G44E, L78V, N105A
notes: as for B1
B12: hz5D7v12-Fc xELL-Hole; and hz5D7v12-Fc xELL-Knob-IL2-T3A-H16A-E61R-P65R-D84Y-C125S (cx10454) (Fc fusion)
chain 1: EVQLVESGGGEVQPGGSLRLSCAASGRTFASAAMGWFRQAPGKEREFVAAISRSDDTYYAESVKGRFTISRDNAKNTVYLQMSSLRAEDTAVYYCAAVVPTYGSNIYVHSAAYNYWGQGTLVTVKPGGGGDKTHTCPPCPAPGGPSVFLFPPKPKDTLMISRTPEVTCVVVDVSHEDPEVKFNWYVDGVEVHNAKTKPREEQYNSTYRVVSVLTVLHQDWLNGKEYKCKVSNKALPAPIEKTISKAKGQPREPQVYTLPPCRDELTKNQVSLWCLVKGFYPSDIAVEWESNGQPENNYKTTPPVLDSDGSFFLYSKLTVDKSRWQQGNVFSCSVMHEALHNHYTQKSLSLSPGGSGGSAPASSSTKKTQLQLEALLLDLQMILNGINNYKNPKLTRMLTFKFYMPKKATELKHLQCLERELKRLEEVLNLAQSKNFHLRPRYLISNINVIVLELKGSETTFMCEYADETATIVEFLNRWITFSQSIISTLT
chain 2: EVQLVESGGGEVQPGGSLRLSCAASGRTFASAAMGWFRQAPGKEREFVAAISRSDDTYYAESVKGRFTISRDNAKNTVYLQMSSLRAEDTAVYYCAAVVPTYGSNIYVHSAAYNYWGQGTLVTVKPGGGGDKTHTCPPCPAPGGPSVFLFPPKPKDTLMISRTPEVTCVVVDVSHEDPEVKFNWYVDGVEVHNAKTKPREEQYNSTYRVVSVLTVLHQDWLNGKEYKCKVSNKALPAPIEKTISKAKGQPREPQVCTLPPSRDELTKNQVSLSCAVKGFYPSDIAVEWESNGQPENNYKTTPPVLDSDGSFFLVSKLTVDKSRWQQGNVFSCSVMHEALHNRYTQKSLSLSPG

Substitutions are numbered along the chain they refer to. Numbers in names are those of the source. A value given as a limit tells only on which side of the number the result lay.

T3 sequence (Q95JB9 22-306 limits assumed): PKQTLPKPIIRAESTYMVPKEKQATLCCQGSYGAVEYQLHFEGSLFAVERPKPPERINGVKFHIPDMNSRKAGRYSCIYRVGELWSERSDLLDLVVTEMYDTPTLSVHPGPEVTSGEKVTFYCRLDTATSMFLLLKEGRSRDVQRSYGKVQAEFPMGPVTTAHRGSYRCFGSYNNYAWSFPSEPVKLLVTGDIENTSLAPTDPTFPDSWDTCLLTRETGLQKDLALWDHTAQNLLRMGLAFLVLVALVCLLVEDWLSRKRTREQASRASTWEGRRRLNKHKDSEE

For one experiment, the target named is T1, mouse NKp46 (mouse, UniProt Q8C567 17-325).
T1 construct: whole, on cells
T1 sequence (looked up): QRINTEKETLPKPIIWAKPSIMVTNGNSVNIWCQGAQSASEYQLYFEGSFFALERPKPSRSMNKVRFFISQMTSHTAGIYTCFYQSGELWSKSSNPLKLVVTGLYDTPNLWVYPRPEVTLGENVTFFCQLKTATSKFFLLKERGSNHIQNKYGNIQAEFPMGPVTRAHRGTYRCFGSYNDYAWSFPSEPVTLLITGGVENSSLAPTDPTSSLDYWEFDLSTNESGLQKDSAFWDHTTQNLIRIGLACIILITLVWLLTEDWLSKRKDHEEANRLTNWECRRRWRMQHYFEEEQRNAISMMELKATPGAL
The experiment is described as follows: flow cytometry, HEK293F cells transfected with mouse NKp46. The procedure: (§1) Binding of NKp46-binding polypeptides formatted as VHH-Fc fusion proteins was assessed by flow cytometry. An IgG1-Fc lacking a hinge, or a homodimeric Fc (FIG. 1I-1J) was used (the Fc lacking a hinge is annotated as Fc*). HEK293F cells were transiently transfected with a plasmid encoding full-length human NKp46, cynomolgus NKp46, or mouse NKp46, followed by an IRES and GFP. Transfected cells expressing NKp46 and GFP were used to measure binding of the polypeptides. The transfected cells were plated in a 96-well plate at 30,000 cells per well in FACS buffer (PBS, 1% BSA, 0.1% NaN₃, pH 7.4). Untransfected HEK293F cells were used as a NKp46-negative control and plated at 30,000 cells per well in a separate plate. Test polypeptides were then diluted to two times the final concentration of 1000 nM, and a 3-, 4-, or 5-fold, serial dilution was made. A final column was left with only FACS buffer as a secondary-only control. Test article dilutions were added to an equal volume of cells, and assay plates were incubated for 30 minutes at 4° C. After washing twice with 150 μL. of FACS buffer per well, the cells were resuspended in FACS buffer with α-hFc-647 secondary diluted 1:1000-2000. Assay plates were then left to incubate at 4° C. for 20-30 minutes. After one additional wash with 150 μL of FACS buffer, bound antibody was detected by flow cytometry. Flow cytometric detection was performed on an Intellicyt iQue Plus or Accuri iQue. NKp46 transfected cells were gated on as GFP positive, and polypeptide binding was measured as median fluorescence at 647 nm.
Take B1: the “Bmax (MFI)” value was 1.17e+06 MFI and binding was characterised by a dissociation constant (Kd) of 0.468 nM.

Take B2: the dissociation constant Kd was 0.887 nM.

On to B3, for which the “Bmax (MFI)” value was determined as 1.21e+06 MFI and binding was characterised by a dissociation constant (Kd) of 0.729 nM.

As for B4, the “Bmax (MFI)” value was found to be 1.17e+06 MFI and the Kd turned out to be 0.613 nM.

As for B5, the “Bmax (MFI)” value came to 1.12e+06 MFI and the dissociation constant (Kd) worked out at 0.696 nM.

Turning to B6, the “Bmax (MFI)” value is 1.22e+06 MFI and the Kd was 0.941 nM.

As for B7, the “Bmax (MFI)” value came out at 1.07e+06 MFI and the equilibrium dissociation constant (Kd) amounted to 0.487 nM.

B8 displayed a Kd of 0.82 nM.

The target of the next experiment is T2, human NKp46 (human, UniProt O76036 22-304).
T2 construct: also called CD335; NCR1
T2 sequence (O76036 22-304 Q82K): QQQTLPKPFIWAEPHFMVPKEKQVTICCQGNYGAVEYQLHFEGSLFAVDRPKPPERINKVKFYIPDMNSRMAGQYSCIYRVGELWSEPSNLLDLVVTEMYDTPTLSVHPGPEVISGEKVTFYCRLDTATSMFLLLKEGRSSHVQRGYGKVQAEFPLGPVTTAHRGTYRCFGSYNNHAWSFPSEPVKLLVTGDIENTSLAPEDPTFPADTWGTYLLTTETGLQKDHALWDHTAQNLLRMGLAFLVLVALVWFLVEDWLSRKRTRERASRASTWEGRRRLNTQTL
The experiment is described as follows: flow cytometry, HEK293F cells transfected with human NKp46. On the procedure: as §1
B9: the “Bmax (MFI)” value is 149000 MFI and the equilibrium dissociation constant (Kd) stood at 0.14 nM.

As for B10, the “Bmax (MFI)” value is 150000 MFI and the dissociation constant Kd worked out at 0.234 nM.

In the case of B11, the “Bmax (MFI)” value worked out at 143000 MFI and the affinity, expressed as Kd, was 0.237 nM.

The next experiment has as its target T2, human NKp46. Described as above. This is another data set of the same source. The procedure: as §1
Take B1: the “Bmax (MFI)” value was found to be 790000 MFI and binding was characterised by a dissociation constant (Kd) of 0.139 nM.

Turning to B2, the dissociation constant Kd came to 0.189 nM.

For B3, the “Bmax (MFI)” value was found to be 938000 MFI and the Kd stood at 0.762 nM.

Regarding B4, the “Bmax (MFI)” value came to 866000 MFI and the Kd came to 0.23 nM.

Consider B5, for which the “Bmax (MFI)” value turned out to be 930000 MFI and binding was characterised by a dissociation constant (Kd) of 0.203 nM.

For B6, the “Bmax (MFI)” value came to 1.05e+06 MFI and the Kd was found to be 0.392 nM.

As for B7, the “Bmax (MFI)” value was 1.04e+06 MFI and the Kd amounted to 0.172 nM.

B8 gave a Kd of 0.269 nM.

A further experiment concerns the target T3, cynomolgus NKp46 (cynomolgus monkey, UniProt Q95JB9 22-306).
T3 construct: also called cyno NKp46; cynomolgus monkey NKp46
The experiment is described as follows: flow cytometry, HEK293F cells transfected with cyno NKp46. On the procedure:
as §1
On to B1, for which the “Bmax (MFI)” value amounted to 67600 MFI and the Kd stood at 0.691 nM.

As to B2, the equilibrium dissociation constant (Kd) was 0.446 nM.

On to B3, for which the “Bmax (MFI)” value was 51500 MFI and the Kd came out at 0.902 nM.

Take B4: the “Bmax (MFI)” value was 64600 MFI and binding was put at a Kd of 0.703 nM.

Consider B5, for which the “Bmax (MFI)” value turned out to be 53500 MFI and the Kd is 0.526 nM.

As to B6, the “Bmax (MFI)” value is 61900 MFI and the Kd was 0.655 nM.

On to B7, for which the “Bmax (MFI)” value is 58600 MFI and the Kd is 0.538 nM.

Turning to B8, the Kd was found to be 1.06 nM.

For a further experiment, the target named is T1, mouse NKp46. The experiment is described as follows: flow cytometry, HEK293F cells transfected with mouse NKp46. This is another data set of the same source. On the procedure:
as §1
As to B9, the “Bmax (MFI)” value is 49300 MFI and binding was characterised by a dissociation constant (Kd) of 0.513 nM.

Regarding B10, the “Bmax (MFI)” value turned out to be 38100 MFI and the Kd turned out to be 0.604 nM.

For B11, the “Bmax (MFI)” value turned out to be 34300 MFI and binding was put at a Kd of 0.729 nM.

For another experiment, the target named is IL-2 receptor (human). In words: cell-based or functional assay.
For B12, the “pSTAT5 EC50 on CD56brightCD16- NK cells” value is less than 80 pM; the “pSTAT5 EC50 on CD56dimCD16+ NK cells and total NK cells” value was less than 0.4 nM.

Another experiment deals with T3, cynomolgus NKp46. In words: flow cytometry, HEK293F cells transfected with cyno NKp46. This is another data set of the same source. The procedure:
as §1
(A flow cytometer gives signals particle by particle.)
B9: the “Bmax (MFI)” value stood at 17900 MFI and the Kd was found to be 0.455 nM.

As for B10, the “Bmax (MFI)” value was 18800 MFI and the Kd amounted to 0.748 nM.

Turning to B11, the “Bmax (MFI)” value was found to be 16400 MFI and the dissociation constant Kd was 0.428 nM.
